Data taken from the Human Domainome abundance scans (Beltran et al. 2025).

B1: F-BAR and double SH3 domains protein 1, residues 467 to 528; numbered along this chain, Q86WN1 (parent)
chain: RALPCPAHVVFRYQAGREDELTITEGEWLEVIEEGDADEWVKARNQHGEVGFVPERYLNFPD
B2: Cullin-9, residues 2234 to 2275; numbered along this chain, Q8IWT3 (parent)
chain: KRCPSCQAPIEKNEGCLHMTCAKCNHGFCWRCLKSWKPNHKD

Variants of: B1
Experiment: abundance fitness (aPCA) (normalised: wild type 0, dead -1); higher = more abundant; growth selection in yeast, the domain comes from the species named
Conditions: Homo sapiens

Abundance fitness: each site, then its substitutions
D62: N -0.201, L -0.151, T 0.028, H 0.011, A 0.012, C 0.111, R -0.309, M -0.181, F -0.399, K -0.148, W -0.356, I -0.435, Y -0.17, Q -0.276, S 0, E 0.114, P -0.235, G -0.057
F60: A -0.535, P -0.466, E -0.561, N -0.531, D -0.768, T -0.499, C -0.275, Q -0.778, L -0.213, R -0.329, I -0.154, M -0.223, K -0.533, G -0.555, W -0.064, V -0.157
Y57: V 0.103, R -0.373, S 0.123, T 0.07, Q -0.292, P -0.613, W -0.281
P61: V 0.001, M -0.088, Q 0.081, A -0.03, K 0.026, Y -0.303, H -0.249, N -0.042, D -0.007, I 0.091, E -0.111, L 0.004, S 0.091, G 0.042, R -0.09, W -0.174
N59: T 0.006, E 0.028, F -0.091, R 0.066, C -0.036, K -0.005, A 0.054, I -0.079, W -0.242, Q 0.018, L -0.159, P -0.977, M -0.117, G -0.096, V -0.078, H 0.003, S -0.036
L58: H -1.12, R -0.859, I -0.088, G -0.73, W -0.829, F -0.902, N -1.02, P -0.946, K -1.01, T -0.602, S -0.65, A -0.743, M -0.574, V -0.267, Q -0.819, C -0.499, E -0.951

Variants of: B2
Experiment: as above
Conditions: Homo sapiens

Abundance fitness of substitutions, site by site:
P4: W -0.147, Y 0.231, R -0.41, E -1.27, V 0.117, H -0.022, N -1.15, I 0.013, S -0.129, F 0.434, Q -0.351, G 0.056, M -0.079, T 0.002, A 0.098, D -1.47, K -1.44, C 0.182, L 0.065
K1: V -0.46, S -0.756, R -0.948, G -0.815, C -1.12, T -0.377, M -0.162, H -0.436, W -1.42, E -0.586, Y 0.038, L -0.493, F -0.735, Q -0.691, I 0.164
R2: H 0.104, E 0.175, C 0.07, M 0.559, P -0.209, W -0.279, G 0.204, T 0.147, I 1.09, K 0.123, V -0.2, A 0.084, L 0.227, Y 0.242, N 0.571, S 0.077
S5: A 0.462, E 0.496, D -0.147, C 0.137, K 0.489, H -0.336, G 0.56, I -0.142
C3: Y -0.342, A -1.03, K -0.658, M -0.144, Q -1.07, V -0.348, S -0.303, N 0.169, I 0.698, G -0.485, W -1.4, E -0.474, R -0.751, H -0.249, T -0.435, D -0.018, F -0.416, P -0.945
